From patent publication US20230002480A1

How the values were obtained:
Experiment in all cases: cell-based or functional assay
[1] = biological target: HIV-1 Env of pseudovirus SC422661.8 (HIV-1)
[2] = biological target: HIV-1 Env of pseudovirus Ce0393_C3 (HIV-1)
[3] = biological target: HIV-1 Env of pseudovirus 6041.v3.c23 (HIV-1)
[4] = biological target: HIV-1 Env of pseudovirus Ce1086_B2 (HIV-1)
[5] = biological target: HIV-1 Env of pseudovirus ZM109F.PB4 (HIV-1)
[6] = biological target: HIV-1 Env of pseudovirus X1632_S2_B10 (HIV-1)
[7] = biological target: HIV-1 Env of pseudovirus 3817.v2.c59 (HIV-1)
[8] = biological target: HIV-1 Env of pseudovirus ZM197M.PB7 (HIV-1)
[9] = biological target: HIV-1 Env of pseudovirus ZM214M.PL15 (HIV-1)
[10] = biological target: HIV-1 Env of pseudovirus 6540.v4.c1 (HIV-1)
[11] = biological target: HIV-1 Env of pseudovirus Ce1176_A3 (HIV-1)
[12] = biological target: HIV-1 Env of pseudovirus 1054_07_TC4_1499 (HIV-1)
[13] = biological target: HIV-1 Env of pseudovirus 62357_14_D3_4589 (HIV-1)
[14] = biological target: HIV-1 Env of pseudovirus 231965.c01 (HIV-1)
[15] = biological target: HIV-1 Env of pseudovirus X2131_C1_B5 (HIV-1)
[16] = biological target: HIV-1 Env of pseudovirus CNE5 (HIV-1)
[17] = biological target: HIV-1 Env of pseudovirus SC05_8C11_2344 (HIV-1)
[18] = biological target: HIV-1 Env of pseudovirus 6480.v4.c25 (HIV-1)
[19] = biological target: HIV-1 Env of pseudovirus 235-47 (HIV-1)
[20] = biological target: HIV-1 Env of pseudovirus Ce0682_E4 (HIV-1)
[21] = biological target: HIV-1 Env of pseudovirus ZM233M.PB6 (HIV-1)
[22] = biological target: HIV-1 Env of pseudovirus HIV-16055-2.3 (HIV-1)
[23] = biological target: HIV-1 Env of pseudovirus 6952.v1.c20 (HIV-1)
[24] = biological target: HIV-1 Env of pseudovirus C3347.c11 (HIV-1)
[25] = biological target: HIV-1 Env of pseudovirus 3365.v2.c2 (HIV-1)
[26] = biological target: HIV-1 Env of pseudovirus X2088_c9 (HIV-1)
[27] = biological target: HIV-1 Env of pseudovirus X1254_c3 (HIV-1)
[28] = biological target: HIV-1 Env of pseudovirus Du172.17 (HIV-1)
[29] = biological target: HIV-1 Env of pseudovirus ZM53M.PB12 (HIV-1)
[30] = biological target: HIV-1 Env of pseudovirus Ce704809221_1B3 (HIV-1)

VRC01 (antibody) gave an IC50, titer in TZM.bl cells [1] of 0.08 µg/mL, an IC80, titer in TZM.bl cells [1] of 0.265 µg/mL and an IC50, titer in TZM.bl cells [2] of 0.62 µg/mL. For the same substance, the IC80, titer in TZM.bl cells [2] was 2.37 µg/mL, the IC50, titer in TZM.bl cells [3] was 0.02 µg/mL and the IC80, titer in TZM.bl cells [3] was 0.08 µg/mL. For the same substance, the IC50, titer in TZM.bl cells [4] was 0.42 µg/mL, the IC80, titer in TZM.bl cells [4] was 1.44 µg/mL and the IC50, titer in TZM.bl cells [5] was 0.13 µg/mL. For the same substance, the IC80, titer in TZM.bl cells [5] was 0.75 µg/mL, the IC50, titer in TZM.bl cells [6] was 0.12 µg/mL and the IC80, titer in TZM.bl cells [6] was 0.74 µg/mL. For the same substance, the IC50, titer in TZM.bl cells [7] was over 50 µg/mL, the IC80, titer in TZM.bl cells [7] was over 50 µg/mL and the IC50, titer in TZM.bl cells [8] was 0.36 µg/mL. For the same substance, the IC80, titer in TZM.bl cells [8] was 1.6 µg/mL, the IC50, titer in TZM.bl cells [9] was 0.44 µg/mL and the IC80, titer in TZM.bl cells [9] was 2.6 µg/mL. The IC50, titer in TZM.bl cells [10] was over 50 µg/mL, the IC80, titer in TZM.bl cells [10] was over 50 µg/mL and the IC50, titer in TZM.bl cells [11] was 2.25 µg/mL. The IC80, titer in TZM.bl cells [11] was 8.1 µg/mL, the IC50, titer in TZM.bl cells [12] was 0.71 µg/mL and the IC80, titer in TZM.bl cells [12] was 2.85 µg/mL. It also gave an IC50, titer in TZM.bl cells [13] of 0.96 µg/mL, an IC80, titer in TZM.bl cells [13] of 4.68 µg/mL and an IC50, titer in TZM.bl cells [14] of 0.34 µg/mL. The IC80, titer in TZM.bl cells [14] was 1.2 µg/mL, the IC50, titer in TZM.bl cells [15] was 0.51 µg/mL and the IC80, titer in TZM.bl cells [15] was 1.54 µg/mL. For the same substance, the IC50, titer in TZM.bl cells [16] was 0.37 µg/mL, the IC80, titer in TZM.bl cells [16] was 1.1 µg/mL and the IC50, titer in TZM.bl cells [17] was 0.64 µg/mL. It also gave an IC80, titer in TZM.bl cells [17] of 1.91 µg/mL, an IC50, titer in TZM.bl cells [18] of 0.04 µg/mL and an IC80, titer in TZM.bl cells [18] of 0.09 µg/mL. The IC50, titer in TZM.bl cells [19] was 0.04 µg/mL, the IC80, titer in TZM.bl cells [19] was 0.17 µg/mL and the IC50, titer in TZM.bl cells [20] was 0.08 µg/mL. It also gave an IC80, titer in TZM.bl cells [20] of 0.48 µg/mL, an IC50, titer in TZM.bl cells [21] of 2 µg/mL and an IC80, titer in TZM.bl cells [21] of 9.3 µg/mL. For the same substance, the IC50, titer in TZM.bl cells [22] was 0.08 µg/mL, the IC80, titer in TZM.bl cells [22] was 0.26 µg/mL and the IC50, titer in TZM.bl cells [23] was 0.04 µg/mL. The IC80, titer in TZM.bl cells [23] was 0.12 µg/mL, the IC50, titer in TZM.bl cells [24] was 0.17 µg/mL and the IC80, titer in TZM.bl cells [24] was 0.58 µg/mL. For the same substance, the IC50, titer in TZM.bl cells [25] was 0.06 µg/mL, the IC80, titer in TZM.bl cells [25] was 0.17 µg/mL and the IC50, titer in TZM.bl cells [26] was over 50 µg/mL. The IC80, titer in TZM.bl cells [26] was over 50 µg/mL, the IC50, titer in TZM.bl cells [27] was 0.07 µg/mL and the IC80, titer in TZM.bl cells [27] was 0.19 µg/mL. For the same substance, the IC50, titer in TZM.bl cells [28] was over 50 µg/mL, the IC80, titer in TZM.bl cells [28] was over 50 µg/mL and the IC50, titer in TZM.bl cells [29] was 1.3 µg/mL. It also gave an IC80, titer in TZM.bl cells [29] of 4 µg/mL, an IC50, titer in TZM.bl cells [30] of 0.55 µg/mL and an IC80, titer in TZM.bl cells [30] of 2.05 µg/mL.
